In article PMC3534379:

How the values were obtained:
[1] = biological target: human CD4 C-terminally fused to the C-terminal fragment of click beetle green (UniProt P01730); test: click beetle luciferase complementation assay in living 293T cells; settings: read off a plot
[2] = biological target: ß-TrCP N-terminally fused to the C-terminal fragment of click beetle green (UniProt Q9Y297); test: as above; settings: 36 h after transfection, equal amounts of plasmids, D-Luciferin added, read off a plot
Sequence of UniProt Q9Y297 (Q9Y297 whole entry, the tested form may be a part): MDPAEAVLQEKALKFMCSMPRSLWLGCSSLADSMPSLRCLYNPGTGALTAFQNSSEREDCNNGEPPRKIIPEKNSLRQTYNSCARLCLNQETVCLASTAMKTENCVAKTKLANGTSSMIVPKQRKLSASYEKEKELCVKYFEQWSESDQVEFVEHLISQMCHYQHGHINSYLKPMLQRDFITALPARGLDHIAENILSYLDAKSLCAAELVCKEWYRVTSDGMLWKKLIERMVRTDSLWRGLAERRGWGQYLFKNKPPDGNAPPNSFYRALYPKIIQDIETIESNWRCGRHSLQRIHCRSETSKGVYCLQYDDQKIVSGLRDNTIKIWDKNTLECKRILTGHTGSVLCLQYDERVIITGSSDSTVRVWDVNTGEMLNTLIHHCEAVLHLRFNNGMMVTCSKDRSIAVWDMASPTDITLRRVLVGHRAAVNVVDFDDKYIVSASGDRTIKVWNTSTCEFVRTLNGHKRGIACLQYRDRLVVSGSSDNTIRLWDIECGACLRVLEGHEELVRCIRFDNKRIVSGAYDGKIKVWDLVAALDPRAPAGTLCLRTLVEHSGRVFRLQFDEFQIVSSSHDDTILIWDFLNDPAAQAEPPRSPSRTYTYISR

[3] = biological target: human CD4 C-terminally fused to the C-terminal fragment of click beetle green (UniProt P01730)
[4] = + ß-TrCPΔF cotransfected (grey bars), parent: est. 14
[5] = without ß-TrCPΔF (coloured bars), parent: est. 13
[6] = + ß-TrCPΔF cotransfected (grey bars), parent: est. 20
[7] = without ß-TrCPΔF (coloured bars), parent: est. 8

| Substance | response (RLU/s x 1.000) [1, 4] | response (RLU/s x 1.000) [1, 5] | response (RLU/s x 1.000) ([2]; parent: est. 4.7) | response (RLU/s x 1.000) [1, 6] | response (RLU/s x 1.000) [1, 7] | response (RLU/s x 1.000) ([2]; parent: est. 6.2) | reduction in CD4 cell surface expression (293T cells, flow cytometry) [3] |
| --- | --- | --- | --- | --- | --- | --- | --- |
| HIV-1 group N YBF30 Vpu C-terminally fused to the N-terminal fragment of click beetle green (from UniProt O91085) S52A; S56A | 19 | 17 | 0.9 | – | – | – | – |
| HIV-1 group M NL4-3 Vpu C-terminally fused to the N-terminal fragment of click beetle green S52A; S56A | – | – | – | 24 | 29 | 2.2 | – |
| HIV-1 group N YBF30 Vpu C-terminally fused to the N-terminal fragment of click beetle green (from UniProt O91085) G51D | 12 | 18 | 1.3 | – | – | – | – |
| HIV-1 group N DJO0131 Vpu C-terminally fused to the N-terminal fragment of click beetle green (natural protein) | – | – | – | – | – | – | 2.8 fold |
| HIV-1 group M NL4-3 Vpu C-terminally fused to the N-terminal fragment of click beetle green G53D | – | – | – | 22 | 30 | 2.2 | – |
